This is an account of results in patent US20250250301A1, “DE NOVO DESIGNED BINDERS TARGETING HUMAN EPCAM AND PDL1 RECEPTORS” (University of Washington, priority 2022, published 2025).

Assay [1] concerns PDL1+SKOV3 cells. In words: Cell binding assay with AF594-labeled binder, SKOV3 cells. The assay is classed as cell-based, human. On the procedure:
FIG. 3. Cell binding assay. Binding of control antibodies are shown on the top and the binding for the designed binders are shown the bottom. […] These proteins bind their targets with low to mid nanomolar affinities based on octet data (see FIG. 2A-C). […] The rest of the designs with and without conjugated AF594 are well behaved, remain folded to 60-70° C., and completely refold upon cooling to room temperature. We show sequence, secondary structure information, and interface positions for EpcamBind1_cb4, EpcamBind2_cb10, and, PDL1Bind_cb6 in FIG. 5.

Assay [2] concerns the target T1, human epithelial cell adhesion molecule (EpCAM) receptor, extracellular portion (human, UniProt P16422 24-265).
T1 construct: extracellular domain; also called human EpCAM receptor
T1 sequence (looked up): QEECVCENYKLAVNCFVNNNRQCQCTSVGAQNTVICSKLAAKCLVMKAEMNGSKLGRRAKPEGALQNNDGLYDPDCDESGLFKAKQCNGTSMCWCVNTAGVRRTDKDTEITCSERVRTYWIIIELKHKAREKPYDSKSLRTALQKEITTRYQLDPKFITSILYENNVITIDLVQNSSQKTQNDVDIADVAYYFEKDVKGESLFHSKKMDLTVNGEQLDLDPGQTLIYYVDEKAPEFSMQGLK
In words: Octet (BLI), kinetic fitting to association and dissociation; binder 1000 nM to 15.6 nM. As to the method: FIG. 2B. Octet data for EpcamBind2_cb10. […] Concentrations span a range from 1000 nM (top curve) to 15.6 nM (bottom curve) by two-fold dilution.
(§1) In one embodiment of any of the polypeptides of the disclosure, the polypeptide bind to their targets with nanomolar affinity as measured by octet. In the octet experiments, the target protein is immobilized onto an octet sensor and the kinetics of the binder binding to the target are measured over a range of binder concentrations to determine the binders affinity.
(Biolayer interferometry detects binding as a change in optical thickness at a sensor tip.)

For assay [3], the target named is T1, human epithelial cell adhesion molecule …. In words: yeast surface display screen.
The target is the same in assay [4]. In words: Octet (BLI), kinetic fitting to association and dissociation; binder 20 nM to 0.5 nM. On the procedure:
FIG. 4. Octet data for gs linked dimer of EpCAMBind1_cterm_cys. […] Concentrations from top curve to bottom curve are 20 nM, 10 nM, 5 nM, 2.5 nM, 1 nM and 0.5 nM.
as §1

The target in assay [5] is T2, human EpCAM receptor (Homo sapiens, UniProt P16422).
T2 sequence (P16422 24-265 limits assumed): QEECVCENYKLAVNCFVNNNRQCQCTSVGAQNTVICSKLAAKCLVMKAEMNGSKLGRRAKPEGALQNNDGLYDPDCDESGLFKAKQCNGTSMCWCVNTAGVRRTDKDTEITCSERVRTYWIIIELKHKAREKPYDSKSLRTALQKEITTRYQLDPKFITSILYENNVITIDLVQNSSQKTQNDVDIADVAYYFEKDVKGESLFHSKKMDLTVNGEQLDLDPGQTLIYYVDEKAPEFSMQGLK
In words: Octet binding to immobilized human EpCAM. As to the method: as §1

For assay [6], the target named is T1, human epithelial cell adhesion molecule …. In words: Octet (BLI), kinetic fitting to association and dissociation; binder 100 nM to 1.56 nM. On the procedure:
FIG. 2A. Octet data for EpcamBind1_cb4. […] Concentrations span a range from 100 nM (top curve) to 1.56 nM (bottom curve) by two-fold dilution.
as §1

In assay [7] the target is T3, human programmed death-ligand 1 (PDL1) receptor, extracellular portion (human, UniProt Q9NZQ7 19-238).
T3 construct: extracellular domain; also called human PDL1
In words: yeast surface display screen.

The target of assay [8] is T3, human programmed death-ligand 1 (PDL1) …. In words: Octet (BLI), steady state analysis.
For assay [9], the target named is T4, PDL1 on PDL1+ SKOV3 cells (human, UniProt Q9NZQ7 19-290).
T4 construct: whole, on cells
In words: flow cytometry on PDL1 (+) cells (PDL1+ SKOV3), binder at 500 nM and 5 uM by the legend, fluorescence at 561 nm. (In flow cytometry, cells or beads pass a laser one at a time.)

Where no end group is shown, it is not given here. AF594 = Alexa Fluor 594 Where only a bound is given, the exact number is not on record here.

T3 sequence (Q9NZQ7 19-238): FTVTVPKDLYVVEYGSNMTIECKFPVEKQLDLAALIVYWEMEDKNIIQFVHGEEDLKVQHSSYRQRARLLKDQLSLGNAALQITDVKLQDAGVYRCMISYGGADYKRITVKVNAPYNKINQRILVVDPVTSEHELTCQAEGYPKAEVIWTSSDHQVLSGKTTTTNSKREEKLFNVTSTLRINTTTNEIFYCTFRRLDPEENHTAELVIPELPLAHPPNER
T4 sequence (Q9NZQ7 19-290): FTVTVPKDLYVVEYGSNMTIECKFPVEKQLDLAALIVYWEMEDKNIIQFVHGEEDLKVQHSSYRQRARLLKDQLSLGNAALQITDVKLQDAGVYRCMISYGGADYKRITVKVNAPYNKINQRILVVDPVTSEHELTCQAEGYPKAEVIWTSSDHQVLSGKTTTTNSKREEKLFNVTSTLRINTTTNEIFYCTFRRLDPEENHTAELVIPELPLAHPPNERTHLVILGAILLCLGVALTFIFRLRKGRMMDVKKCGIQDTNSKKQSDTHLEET

Consider “PDL1Bind1_E39C-AF594 (DEDTDRVFELLNEFNELREEGDPERAREVLEEAERLAKCLSDPTLESFVQAIKRVY)”, for which the “binding to PDL1+SKOV3 cells” value in assay [1] (500 nM and 5 uM) was “specifically binds”. In addition, the “nonspecific binding to PDL1− cells” value in assay [1] (5 uM, comparable to control antibody) is “some minor nonspecific binding”.

B1: EpcamBind2_cb10 (designed binder)
chain: DEVQHEVHELMVRIHSLVVRGNPEEARKLLEELEELAKKTNNPSYHIAVEALEHVIN
notes: Optimized de novo miniprotein against human EpCAM
Take B1: the affinity in [2], expressed as Kd, was 500 nM.

B2: EpcamBind2 (designed binder)
chain: DEVQHEVHELFVRIQELVVRGNPEEARKLLEELEELAKKYNDPSLHIAVEALERVIN
Regarding B2, the binding result in [3] is “binds”.

B3: gs linked dimer of EpCAMBind1_cterm_cys (designed binder)
chain: DEERLRELVEELVKELGLSERYKRTLERHLRTALEQGYDEEQIRMNLEQLAQQAREIGGSGGSDEERLRELVEELVKELGLSERYKRTLERHLRTALEQGYDEEQIRMNLEQLAQQAREI
notes: also called EpCAM1_dimer
Regarding B3, the Kd – broadly, the equilibrium constant for the complex coming apart – in assay [4] is below 0.01 nM.

B4: gs linked dimer of EpCAMBind1_cterm_cys: gs linked fusion dimer of EpCAMBind1; possibly related to EpCAM1_dimer, SEQ ID NO:18 (protein)
chain: DEERLRELVEELVKELGLSERYKRTLERHLRTALEQGYDEEQIRMNLEQLAQQAREIGGSGGSDEERLRELVEELVKELGLSERYKRTLERHLRTALEQGYDEEQIRMNLEQLAQQAREI
In the case of B4, the “binding affinity in words, EpCAM” value in assay [5] is “low picomolar”. In [5] (kinetic fitting to association and dissociation, 20 nM to 0.5 nM), the “estimated Kd” value is below 0.01 nM.

B5: EpcamBind1_cb4 (designed binder)
chain: DEERLRELVEELVKELGLSERYKRTLERHLRTALEQGYDEEQIRMNLEQLAQQAREI
notes: Optimized de novo miniprotein (three helices) against human EpCAM
The molecule B5 yielded a Kd in assay [6] of 5.6 nM. This lies in the single-digit nanomolar range.

B6: Pdl1Bind (designed binder)
chain: DEDTRRVMELLHEASELREEGDPERAREVLEEAERLAKELGDPSLERFVQAHKRVY
Regarding B6, the binding result in [7] is on record as “binds”.

B7: PDL1Bind_cb6 (designed binder)
chain: DEDTDRVFELLNEFNELREEGDPERAREVLEEAERLAKELSDPTLESFVQAIKRVY
notes: Optimized de novo miniprotein against human PDL1
In turn, B7 displayed a Kd in assay [8] of 2 nM. That is a single-digit nanomolar value.

B8: PDL1Bind1_E39C-AF594 (designed binder)
chain: DEDTDRVFELLNEFNELREEGDPERAREVLEEAERLAKC(AF594)LSDPTLESFVQAIKRVY
Turning to B8, in assay [9], the binding result is listed as “binds”.
